Experimental data as given in PMC4569521 (Journal of molecular biology, 2015).
Where no end group is shown, it is not given here. fluorescein = fluorescein label at the N-terminus

Target: T1, N-domain of ClpX (residue 1–64) (E. coli, UniProt P0A6H1 1-64)
T1 sequence (looked up): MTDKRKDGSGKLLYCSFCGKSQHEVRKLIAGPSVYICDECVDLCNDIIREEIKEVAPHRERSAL
Assay: fluorescence polarisation

fluorescein-ESRIVGIFRPSGNTERVKNQ [fluorescein-labeled E-tag peptide (MuA residues 614–633)] showed a Kd of ~380 µM.
